Laboratory results taken from PMC9723635.

Assays:
[1] = tested on: RBPMS-A T/E; assay: UV crosslinking; details: 4 uM protein, with 20% HeLa nuclear extract, EMSA: 50 mM HEPES pH 7.2-7.9, 15 mM MgCl2, 25% glycerol, 5 mM DTT, 45 mM KCl, 5 ug tRNA, 20 fmol RNA, 25 min at 30 C, then 5 ug heparin 5 min at 30 C
[2] = tested on: RBPMS-A T/A; assay: EMSA; details: apparent Kd, Hill fit; tRNA and heparin present; EMSA: 50 mM HEPES pH 7.2-7.9, 15 mM MgCl2, 25% glycerol, 5 mM DTT, 45 mM KCl, 5 ug tRNA, 20 fmol RNA, 25 min at 30 C, then 5 ug heparin 5 min at 30 C; 4% …
[3] = tested on: RBPMS-A T/E; assay: EMSA; details: apparent Kd, Hill fit; tRNA and heparin present; EMSA: 50 mM HEPES pH 7.2-7.9, 15 mM MgCl2, 25% glycerol, 5 mM DTT, 45 mM KCl, 5 ug tRNA, 20 fmol RNA, 25 min at 30 C, then 5 ug heparin 5 min at 30 C; 4% …

Row | Substance | binding signal [1] | Kd [2] | Kd [3]
1 | Tpm1 UV-crosslinking RNA | 7.8 % of WT |  | 
2 | Tpm1 exon 3 upstream intron EMSA RNA (three tandem CAC motifs) |  | 268 nM | 756 nM
